# Data published in patent US5451411A, “Methods and compositions for the oral delivery of therapeutic agents” (University of Washington, priority 1993, dated 1995).
# What was measured:
# [1] = Encapsulation efficiency of 125I-TGF-β1 in alginate beads; format: physicochemical
# Procedure: Radioiodination of TGF-β1 : Radioiodination of TGF-β1 was completed in a 3.0-mL Eppendorf tube using a modified chloramine-T method (A. Tuong et al., "Site Specific Radioiodination of Recombinant Himdin," Annal. Biochem. 189:186-191 (1990)). To TGF-β1 (1 mg/1 mL) in 5 mMHCl, 10 μL of carrier-free Na^125 I (1.0 mCi) was added and mixed for 5 minutes. 100 μL of 0.1% chloramine-T was then added and, after vortexing for 60 seconds, the reaction was stopped by the addition of 100 μL of aqueous 0.1% mercaptoethanol followed by 100 μL of […]. ^125 I-TGF-β1 was diluted by adding 1.2 mL of citrate phosphate buffer (CPB), pH 2.6.
# Free ^125 I was separated from ^125 I-TGF-β1 by gel filtration on a prepacked Sephadex G-25 column from Pharmacia (Uppsala, Sweden) preequilibrated with CPB. Twenty fractions of 0.5 mL each were collected, and aliquots were counted for activity using a γ-scintillation counter (Model 1185 GammaTrac; Tm Analytic; Elk Grove Village, IL). Separated ^125 I-TGF-β1 (S.A.=0.72 nCi/ng or 187 ng/μL was stored at 4° C. in 1.5 mL-Eppendofftubes. […]
# Formation of Beads: 1.5 mL of the prebead mixture was drawn into a syringe equipped with a 30 G needle. […] If ^125 I-TGF-β1 was incorporated in the beads, calcium chloride was retained and counted for activity along with the 1.5 mL-Eppendoff tube to determine the % encapsulation of TGF-β1 in beads. […]
# [2] = format: physicochemical
# Procedure: Beads prepared in accordance with the procedure of Example 1 and containing 50 μg of ^125 I-TGF-β1 in 3.75-7.5 mg (original weight of alginate) were transferred to 15.0 mL polypropylene tubes containing 13.0 mL of PBS or of 0.1 N HCl at 37° C. In some cases, 1% BSA was added to the release media. The polypropylene tubes were gently shaken using a orbital shaker (200 rotations/minutes). At selected times, 100 μL aliquots were taken and counted for radioactivity. Care was taken so that aliquots contained no beads or bead fragments. The cumulative ^125 I-TGF-β1 released from the beads was calculated after correcting for volume changes. After 24 hours, the beads in 0.1 N HCl were transferred to PBS.
# (§1) Alginate beads containing TGF-β1 and 90 kDa PAA (75:10 w/w in alginate:PAA) were prepared following the procedure of Example 1, and were acid treated for 30 minutes at 37° C. in 0.1 N HCl, as described in Example 2. The beads were then placed in PBS, pH 7.4, and the immunoreactivity of released TGF-β1 was determined by ^125 I radiolabel and ELISA, as described in Example 2. In addition, a growth inhibitory assay (GIA) was used to determine the bioactivity of the TGF-β1. The GIA measures the ability of TGF-β1 to inhibit the growth of mink lung epithelial cells (ATCC #CCL64) (T. Ikedaet al., "Human Transforming Growth Factor Type β2: Production By a Prostatic Adenocarcinoma Cell Line, Purification and Initial Characterization," Biochemistry 26:2406-2410 (1987)). The activity of the growth factor was determined by the inhibitory response of the cells to different concentrations of TGF-β1. Cell viability was based on the enzymatic cleavage by metabolically active cells of a tetrazolium salt into an orange/red formazan product. Prior to the assay cells were trypsinized and plated in a 96-well flat bottomed plate (Costar) at a concentration of 1000 cells/well. After allowing the cells to attach, samples containing the TGF-β1 and a reference standard were diluted to concentrations ranging from 1000 to 1.95 pg/ml and added to the wells. The cells were incubated for four days after which time a 100 μL solution containing 25 μg of sodium 3"-[1-(phenylamino)-carbonyl]-3,4-tetrazolium-bis(4-methoxy-6-nitro) benzene sulfonic acid hydrate (Diagnostic Chemicals, Ltd.) and 5 mM phenazine methosulfate (Aldrich) in media was added to each well. The cells were then incubated for 7 hours and the plates read on a microplate reader at an absorbance of 450 nm with a 630 nm reference filter. The specific activity of a sample was calculated relative to the reference material.
# [3] = system: mink lung epithelial cells (ATCC #CCL64); experiment: Growth inhibitory assay (GIA) bioactivity of released TGF-β1; format: cell-based; conditions: acid treated beads 75:10 w/w PAA 90 kDa; PBS pH 7.4
# Procedure: as §1, with “After allowing the cells to attach, samples containing the TGF-β1 and a reference standard were diluted to concentrations ranging from 1000 to 1.95 pg/ml and added to the wells. The cells were incubated for four days after which time a 100 μL solution containing 25 μg of sodium 3"-[1-(phenylamino)-carbonyl]-3,4-tetrazolium-bis(4-methoxy-6-nitro) benzene sulfonic acid hydrate (Diagnostic Chemicals, Ltd.) and 5 mM phenazine methosulfate (Aldrich) in media was added to each well.” left out
substance,measurement,setting,value
"TGF-β1: TGF-β1 (1 mg/mL in 5 mM HCl) obtained from Bristol-Myers Squibb (Seattle, WA)",Encapsulation efficiency of TGF-β1 in alginate beads,"[1]; prebead mixtures made in polypropylene tubes, most preparations",greater than 97.5%
same,Loss of TGF-β1,[1]; use of glass vials,more than 98%
same,Effect of acid treatment time on dissolution profiles and TGF-β1 release rates,"[2]; 0.1 N HCl 37° C. 0.25-24 hr, then PBS pH 7.4",little difference
same,Total release of TGF-β1 (125I radiolabel),"[2]; acid treated beads 75:10 w/w PAA 90 kDa, PBS pH 7.4",90%
same,TGF-β1 bioactive (GIA),[3],more than 85%
